Results on 21 molecules are retold here after paper PMC7949032, “The KH domain facilitates the substrate specificity and unwinding processivity of DDX43 helicase”.

In one data set the target is T1, DDX43 KH-126 (UniProt Q9NXZ2).
T1 sequence: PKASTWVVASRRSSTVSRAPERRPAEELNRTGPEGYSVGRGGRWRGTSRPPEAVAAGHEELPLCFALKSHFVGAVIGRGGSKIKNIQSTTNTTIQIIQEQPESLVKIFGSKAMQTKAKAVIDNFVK
The data set can be described thus: filter binding. The following applies: EMSA: 40 mM Tris pH 8.0, 0.5 mM MgCl2, 15 mM NaCl, 0.01% NP-40, 0.1 mM DTT, 1 mg/ml BSA, no ATP, ice 30 min (Fig 2A legend: RT); filter binding: 25 mM Tris pH …. (In general: A gel shift assay detects complexes by their altered migration in electrophoresis.)

Data set [1] addresses DDX43 KH-domain protein KH-126 (human) (UniProt Q9NXZ2). The data set can be described thus: SEC; Sephacryl S-100 high-resolution column calibrated with molecular mass standards; buffer A (25 mM Tris pH 8.0, 0.15 M NaCl, 100 uM Tween 20, 10% glycerol), 0.5 ml/min. Background: Size exclusion chromatography separates by hydrodynamic size, large species first.
Data set [2] addresses T2, DDX43 KH-89 (UniProt Q9NXZ2 54-142).
T2 sequence: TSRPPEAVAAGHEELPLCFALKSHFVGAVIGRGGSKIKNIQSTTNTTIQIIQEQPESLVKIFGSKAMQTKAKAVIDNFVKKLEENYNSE
The experiment in a line: NMR HSQC titration; negligible shift changes; EMSA: 40 mM Tris pH 8.0, 0.5 mM MgCl2, 15 mM NaCl, 0.01% NP-40, 0.1 mM DTT, 1 mg/ml BSA, no ATP, ice 30 min (Fig 2A legend: RT); filter binding: 25 mM Tris pH 7.5, 25 mM KOAc, 1 mM Mg(OAc)2, 1 mM DTT, 0.1 mg/ml BSA, 37 C; NMR: 25 mM Hepes pH 7.4, 250 mM NaCl, 5% D2O, temperature not stated. Conditions: protein: recombinant; His removed by thrombin for NMR; 15N.

For data set [3], the target named is T2, DDX43 KH-89. The data set can be described thus: EMSA; EMSA: 40 mM Tris pH 8.0, 0.5 mM MgCl2, 15 mM NaCl, 0.01% NP-40, 0.1 mM DTT, 1 mg/ml BSA, no ATP, ice 30 min (Fig 2A legend: RT); filter binding: 25 mM Tris pH 7.5, 25 mM KOAc, 1 mM Mg(OAc)2, 1 mM DTT, 0.1 mg/ml BSA, 37 C; NMR: 25 mM Hepes pH 7.4, 250 mM NaCl, 5% D2O, temperature not stated. The following applies: protein: recombinant; His removed by thrombin for NMR; 15N; label: 5'-32P.

In data set [4] the target is T3, DDX43 full-length WT (UniProt Q9NXZ2 1-648). The experiment in a line: EMSA; no ATP; preferred DNA; EMSA: 40 mM Tris pH 8.0, 0.5 mM MgCl2, 15 mM NaCl, 0.01% NP-40, 0.1 mM DTT, 1 mg/ml BSA, no ATP, ice 30 min (Fig 2A legend: RT); filter binding: 25 mM Tris pH 7.5, 25 mM KOAc, 1 mM Mg(OAc)2, 1 mM DTT, 0.1 mg/ml BSA, 37 C; NMR: 25 mM Hepes pH 7.4, 250 mM NaCl, 5% D2O, temperature not stated. The following applies: protein: recombinant; (pET28a); label: 5'-32P; 20 bp, 3' overhang 25 nt on strand 1.

The target in data set [5] is T3, DDX43 full-length WT. The data set can be described thus: EMSA; no ATP; preferred RNA; EMSA: 40 mM Tris pH 8.0, 0.5 mM MgCl2, 15 mM NaCl, 0.01% NP-40, 0.1 mM DTT, 1 mg/ml BSA, no ATP, ice 30 min (Fig 2A legend: RT); filter binding: 25 mM Tris pH 7.5, 25 mM KOAc, 1 mM Mg(OAc)2, 1 mM DTT, 0.1 mg/ml BSA, 37 C; NMR: 25 mM Hepes pH 7.4, 250 mM NaCl, 5% D2O, temperature not stated. The following applies: protein: recombinant; (pET28a); label: 5'-32P; 13 bp, 5' overhang 15 nt on strand 1.

The target of data set [6] is T2, DDX43 KH-89. The experiment in a line: NMR HSQC titration; EMSA: 40 mM Tris pH 8.0, 0.5 mM MgCl2, 15 mM NaCl, 0.01% NP-40, 0.1 mM DTT, 1 mg/ml BSA, no ATP, ice 30 min (Fig 2A legend: RT); filter binding: 25 mM Tris pH 7.5, 25 mM KOAc, 1 mM Mg(OAc)2, 1 mM DTT, 0.1 mg/ml BSA, 37 C; NMR: 25 mM Hepes pH 7.4, 250 mM NaCl, 5% D2O, temperature not stated. Conditions: protein: recombinant; His removed by thrombin for NMR; 15N.

The next data set has as its target T4, DDX43 KH-89 A81G (UniProt Q9NXZ2 54-142, A81G).
T4 sequence: T2 sequence with A28G
The data set can be described thus: NMR HSQC titration; fewer residues shifted, larger shifts than WT; EMSA: 40 mM Tris pH 8.0, 0.5 mM MgCl2, 15 mM NaCl, 0.01% NP-40, 0.1 mM DTT, 1 mg/ml BSA, no ATP, ice 30 min (Fig 2A legend: RT); filter binding: 25 mM Tris pH 7.5, 25 mM KOAc, 1 mM Mg(OAc)2, 1 mM DTT, 0.1 mg/ml BSA, 37 C; NMR: 25 mM Hepes pH 7.4, 250 mM NaCl, 5% D2O, temperature not stated. The following applies: protein: recombinant; tags: His cleaved by thrombin.

Numbering of substitutions follows the chain as printed.

T3 sequence (Q9NXZ2 whole entry): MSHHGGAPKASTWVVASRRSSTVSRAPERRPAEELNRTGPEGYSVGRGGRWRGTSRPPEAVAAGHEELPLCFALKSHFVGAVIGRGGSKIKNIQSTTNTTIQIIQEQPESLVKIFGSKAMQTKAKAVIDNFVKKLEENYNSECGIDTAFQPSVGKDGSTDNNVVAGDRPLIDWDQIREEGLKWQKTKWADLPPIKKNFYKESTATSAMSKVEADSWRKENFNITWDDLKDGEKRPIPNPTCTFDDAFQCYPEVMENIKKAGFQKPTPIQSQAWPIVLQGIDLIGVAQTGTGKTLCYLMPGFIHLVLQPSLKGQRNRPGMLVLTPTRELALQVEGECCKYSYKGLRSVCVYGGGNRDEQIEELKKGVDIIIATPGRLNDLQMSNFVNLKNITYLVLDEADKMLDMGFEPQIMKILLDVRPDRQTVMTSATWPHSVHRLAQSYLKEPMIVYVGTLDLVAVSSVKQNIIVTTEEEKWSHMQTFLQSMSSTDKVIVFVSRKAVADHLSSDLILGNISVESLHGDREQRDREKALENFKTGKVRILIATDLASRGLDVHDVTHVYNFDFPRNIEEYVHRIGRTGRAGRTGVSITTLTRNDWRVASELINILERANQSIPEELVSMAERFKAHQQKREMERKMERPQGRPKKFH

Broadly, the Kd is the free concentration of one partner at which half of the binding sites on the other are occupied at equilibrium, for simple one-to-one binding. In the data set with DDX43 KH-126, “UUUUUUUUUUUUUUUGGUGAUGGUGUAUUGAGUGGGAUGCAUGCA / UGCAUGCAUCCCACUCAAUACACCAUCACCUUUUUUUUUUUUUUU [forked dsRNA 30/15]” gave a Kd of 2.5 µM.

Molecule “TTTTTTTTTTTTTTTGGTGATGGTGTATTGAGTGGGATGCATGCA / TGCATGCATCCCACTCAATACACCATCACCTTTTTTTTTTTTTTT [fork dsDNA 30/15]” had an equilibrium dissociation constant (Kd) in the data set with DDX43 KH-126 of 1.29 µM.

Molecule “GAGCTACCAGCTACCCCGTATGTCAGAGAG [ssDNA 30-mer]” gave a Kd in the data set with DDX43 KH-126 of 1.41 µM.

Take TTTTTTTTTTTTTTTTTTTTTTTTTTTTTT [dT30]: the Kd with DDX43 KH-126 amounted to 2.45 µM.

Usually stoichiometry N stands for a count of units in the complex or per binding partner. Consider “DDX43 KH-domain protein KH-126 (from UniProt Q9NXZ2 67-128) (domain or fragment)”, for which the stoichiometry N in data set [1] amounted to 2.

In turn, “GAGCUACCAGCUACCCCGUAUGUCAGAGAG [ssRNA 30-mer]” showed a Kd in the data set with DDX43 KH-126 of 3.01 µM.

In the data set with DDX43 KH-126, UUUUUUUUUUUUUUUUUUUUUUUUUUUUUU [rU30] had a Kd of 1.48 µM.

Take AAAAA (ssDNA) [dA5]: in the data set with DDX43 KH-89 [2], the binding result is “no binding”.

For GAGCTACCAGCTACCCCGTATGTCAGAGAG (ssDNA) [ssDNA 30-mer], in the data set with DDX43 KH-89 [3], the binding result is “binds”.

B1: 20-bp dsDNA 3' TTGT-repeat tail (dsDNA)
DNA 1: CCACTCAATACACCATCACCTTGTTGTTGTTGTTGTTGTTGTTGT
DNA 2: GGTGATGGTGTATTGAGTGG
As for B1, the binding result in the data set with DDX43 full-length WT [4] is on record as “binds”.

B2: 13-bp dsRNA 5' UUGU-repeat tail (dsRNA)
RNA 1: UGUUGUUGUUGUUGUACCGUAAAGACGC
RNA 2: GCGUCUUUACGGU
As for B2, in the data set with DDX43 full-length WT [5], the binding result was “binds”.

Turning to GGGGG (ssDNA) [dG5], in the data set with DDX43 KH-89 [2], the binding result is reported as “no binding”.

TGTGT (ssDNA): the Kd in the data set with DDX43 KH-89 [6] is 78 µM.

Take CCCCC (ssDNA) [dC5]: in the data set with DDX43 KH-89 [6], the Kd came out at 2100 ± 400 µM.

As to UUUUU (ssRNA) [rU5], the Kd in the data set with DDX43 KH-89 [6] stood at 1800 ± 200 µM.

Regarding GAGCUACCAGCUACCCCGUAUGUCAGAGAG (ssRNA) [ssRNA 30-mer], the binding result with DDX43 KH-89 [3] was “binds”.

TTTTTTTTTT (ssDNA) [dT10]: in the data set with DDX43 KH-89 [6], the Kd is 174 ± 90 µM.

As for GTTGT (ssDNA), the Kd with DDX43 KH-89 [6] came out at 44 µM.

As for CGCGC (ssDNA), the Kd with DDX43 KH-89 [6] worked out at 266 µM.

On to TTTTT (ssDNA) [dT5], for which the binding result with DDX43 KH-89 A81G is given as “binds”. In addition, the Kd with DDX43 KH-89 [6] was found to be 1500 ± 290 µM.

Turning to CTCTC (ssDNA), in the data set with DDX43 KH-89 [6], the binding result was “binds”.
